Laboratory results taken from article PMC12096953, “Insights into heme degradation and hydrogen peroxide-induced dimerization of human neuroglobin” (Bioscience Reports, 2025).
Numbering of substitutions follows the chain as printed. Names may count otherwise.

B1: wild-type human neuroglobin (natural protein, UniProt Q9NPG2 1-151, looked up)
chain: MERPEPELIRQSWRAVSRSPLEHGTVLFARLFALEPDLLPLFQYNCRQFSSPEDCLSSPEFLDHIRKVMLVIDAAVTNVEDLSSLEEYLASLGRKHRAVGVKLSSFSTVGESLLYMLEKCLGPAFTPATRAAWSQLYGAVVQAMSRGWDGE
notes: human neuroglobin (hNgb), described as a protein of 151 amino acids; Heme b protein; The dimers seen arise after H2O2 treatment and are held by covalent Tyr-Tyr links; also called hNgb; wild-type hNgb
B2: human neuroglobin Y44F variant (natural protein, UniProt Q9NPG2 1-151, looked up)
chain: B1 chain with Y44F
notes: human neuroglobin (hNgb) with Y44F
B3: human neuroglobin Y44A variant (natural protein, UniProt Q9NPG2 1-151, looked up)
chain: B1 chain with Y44A
notes: human neuroglobin (hNgb) with Y44A; also called hNgb Y44A
B4: human neuroglobin Y44AC46AC55A variant (natural protein, UniProt Q9NPG2 1-151, looked up)
chain: B1 chain with Y44A, C46A, C55A
notes: human neuroglobin (hNgb) with Y44A, C46A and C55A; also called triple variant

Columns and labels:
[1] = target: the molecule itself; experiment: SEC; HPLC-SEC of wild-type hNgb, 1 µg/µL, 15-fold H2O2, 20 h at 4°C, with or without the spin trap MNP (10 µg/µL)
[2] = target: the molecule itself; experiment: SEC-MALS; HPLC-SEC-PDA-MALS, Superdex 200 10/300 GL, 1x PBS pH 7.4, 25°C, detection at 412 nm; 1 μg/μL protein incubated 20 h at 4°C with different molar excess of H2O2 before the run; monomer to covalent dimer

| Protein | percent dimerization (15-fold H2O2, with MNP) [1] | percent dimerization (15-fold H2O2, without MNP) [1] | stoichiometry N [2] |
| --- | --- | --- | --- |
| B1 | 8.1% | 18.7% | 2 |
| B2 | – | – | 2 |
| B3 | – | – | 2 |
| B4 | – | – | 2 |
